The supplement of paper PMC9112550, “Optimization of the antimicrobial peptide Bac7 by deep mutational scanning” (BMC Biology, 2022)

system: Escherichia coli TOP10; assay: shrunken log2 fold change of peptide-encoding DNA abundance (4.5 h post-induction vs induction); higher = less antimicrobial activity (less host growth inhibition); details: time post-induction: 4.5 h; library: site-saturation at positions 5, 18, 19, 20
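Note: peptides expressed intracellularly from a pBAD plasmid library in pooled LB shake-flask culture, induced with 0.3% L-arabinose, DNA abundance read by NGS, three biological replicates, DESeq2 with apeglm shrinkage.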

Row | Sequence | shrunken log2 fold change
1 | RRIRYRPPRLPRPRPRPWLIPRP | -0.204
2 | RRIRLRPPRLPRPRPRPHPRPRP | 0.276
3 | RRIRERPPRLPRPRPRPCMHPRP | -0.0148
4 | RRIRLRPPRLPRPRPRPKAQPRP | -0.00354
5 | RRIRGRPPRLPRPRPRPQIWPRP | 0.293
6 | RRIRKRPPRLPRPRPRPNDRPRP | -0.0503
7 | RRIRVRPPRLPRPRPRPEVIPRP | -0.595
8 | RRIRMRPPRLPRPRPRPYLNPRP | 0.00358
9 | RRIRSRPPRLPRPRPRPPYDPRP | -0.397
10 | RRIRHRPPRLPRPRPRPVKWPRP | 0.421
11 | RRIRFRPPRLPRPRPRPHGSPRP | -0.0241
12 | RRIRGRPPRLPRPRPRPVWVPRP | 0.509
13 | RRIRIRPPRLPRPRPRPNMMPRP | -0.298
14 | RRIRARPPRLPRPRPRPFPMPRP | 0.335
15 | RRIRGRPPRLPRPRPRPDWDPRP | 0.596
16 | RRIRQRPPRLPRPRPRPDPGPRP | -0.00151
17 | RRIRTRPPRLPRPRPRPFDEPRP | -0.206
18 | RRIRLRPPRLPRPRPRPVPGPRP | 0.113
19 | RRIRPRPPRLPRPRPRPEWLPRP | 0.404
20 | RRIRLRPPRLPRPRPRPYVAPRP | -0.602
21 | RRIRRRPPRLPRPRPRPCWPPRP | 0.0865
22 | RRIRERPPRLPRPRPRPIFPPRP | -0.367
23 | RRIRPRPPRLPRPRPRPYDNPRP | -0.415
24 | RRIRGRPPRLPRPRPRPICYPRP | 0.543
25 | RRIRNRPPRLPRPRPRPHFRPRP | 0.0231

Row | Sequence | shrunken log2 fold change
26 | RRIRRRPPRLPRPRPRPAYYPRP | 0.0681
27 | RRIRMRPPRLPRPRPRPQMDPRP | 0.224
28 | RRIRSRPPRLPRPRPRPNWIPRP | -0.659
29 | RRIRFRPPRLPRPRPRPYHIPRP | -0.081
30 | RRIRKRPPRLPRPRPRPSMEPRP | 0.181
31 | RRIRGRPPRLPRPRPRPIDFPRP | -0.0475
32 | RRIRNRPPRLPRPRPRPKHMPRP | -0.382
33 | RRIRRRPPRLPRPRPRPKTMPRP | 0.348
34 | RRIRCRPPRLPRPRPRPDQWPRP | -0.197
35 | RRIRMRPPRLPRPRPRPICQPRP | 3.43
36 | RRIRWRPPRLPRPRPRPYTAPRP | -0.611
37 | RRIRNRPPRLPRPRPRPNHAPRP | -0.0192
38 | RRIRVRPPRLPRPRPRPYQWPRP | -0.175
39 | RRIRVRPPRLPRPRPRPYGGPRP | -0.374
40 | RRIRIRPPRLPRPRPRPCNPPRP | -0.123
41 | RRIRGRPPRLPRPRPRPVGMPRP | 0.907
42 | RRIRTRPPRLPRPRPRPSMYPRP | -0.39
43 | RRIRERPPRLPRPRPRPCKRPRP | -0.294
44 | RRIRERPPRLPRPRPRPITNPRP | -0.409
45 | RRIRYRPPRLPRPRPRPTCHPRP | -1.16
46 | RRIRNRPPRLPRPRPRPVDWPRP | 0.218
47 | RRIRYRPPRLPRPRPRPQCSPRP | -0.73
48 | RRIRMRPPRLPRPRPRPRPLPRP | 1.17
49 | RRIRMRPPRLPRPRPRPHKHPRP | -0.287
50 | RRIRVRPPRLPRPRPRPFFGPRP | -0.0414

Row | Sequence | shrunken log2 fold change
51 | RRIRRRPPRLPRPRPRPAMDPRP | 0.0975
52 | RRIRYRPPRLPRPRPRPHFEPRP | -0.115
53 | RRIRQRPPRLPRPRPRPAMYPRP | -0.244
54 | RRIRYRPPRLPRPRPRPFLIPRP | -1.15
55 | RRIRIRPPRLPRPRPRPNFLPRP | -0.677
56 | RRIRKRPPRLPRPRPRPGFIPRP | -0.307
57 | RRIRRRPPRLPRPRPRPPELPRP | -0.0467
58 | RRIRFRPPRLPRPRPRPNGWPRP | 0.0579
59 | RRIRSRPPRLPRPRPRPDWGPRP | -0.128
60 | RRIRARPPRLPRPRPRPYNKPRP | -0.731
61 | RRIRQRPPRLPRPRPRPPFNPRP | -0.159
62 | RRIRFRPPRLPRPRPRPQCHPRP | -0.358
63 | RRIRYRPPRLPRPRPRPLIGPRP | -0.478
64 | RRIRHRPPRLPRPRPRPSTYPRP | -0.202
65 | RRIRSRPPRLPRPRPRPKLAPRP | 0.245
66 | RRIRSRPPRLPRPRPRPLEDPRP | 0.0492
67 | RRIRIRPPRLPRPRPRPYTTPRP | -0.0313
68 | RRIRTRPPRLPRPRPRPNLNPRP | -0.55
69 | RRIRCRPPRLPRPRPRPGTTPRP | 0.844
70 | RRIRWRPPRLPRPRPRPTLLPRP | 0.104
71 | RRIRRRPPRLPRPRPRPCAWPRP | 0.0864
72 | RRIRTRPPRLPRPRPRPQFEPRP | 0.0219
73 | RRIRRRPPRLPRPRPRPINYPRP | -0.196
74 | RRIRHRPPRLPRPRPRPIPSPRP | -0.274
75 | RRIRKRPPRLPRPRPRPDLIPRP | -0.275

Row | Sequence | shrunken log2 fold change
76 | RRIRHRPPRLPRPRPRPSWIPRP | -0.171
77 | RRIRFRPPRLPRPRPRPGAGPRP | 0.289
78 | RRIRTRPPRLPRPRPRPECIPRP | 0.0878
79 | RRIRERPPRLPRPRPRPKIEPRP | -0.151
80 | RRIRTRPPRLPRPRPRPLFHPRP | -0.193
81 | RRIRNRPPRLPRPRPRPVFKPRP | -0.183
82 | RRIRQRPPRLPRPRPRPQWCPRP | 0.142
83 | RRIRKRPPRLPRPRPRPWNMPRP | -0.181
84 | RRIRCRPPRLPRPRPRPMLFPRP | 0.545
85 | RRIRRRPPRLPRPRPRPPIRPRP | 2.1
86 | RRIRRRPPRLPRPRPRPGLTPRP | 0.508
87 | RRIRERPPRLPRPRPRPRFVPRP | -0.373
88 | RRIRGRPPRLPRPRPRPCIMPRP | 0.177
89 | RRIRIRPPRLPRPRPRPNLFPRP | -0.512
90 | RRIRPRPPRLPRPRPRPKFNPRP | -0.404
91 | RRIRQRPPRLPRPRPRPCAFPRP | -0.254
92 | RRIRCRPPRLPRPRPRPIFVPRP | -0.284
93 | RRIRMRPPRLPRPRPRPNRLPRP | 0.0386
94 | RRIRARPPRLPRPRPRPWTFPRP | -0.0754
95 | RRIRWRPPRLPRPRPRPMDCPRP | -0.0839
96 | RRIRIRPPRLPRPRPRPGDWPRP | 0.585
97 | RRIRPRPPRLPRPRPRPQKHPRP | 0.865
98 | RRIRCRPPRLPRPRPRPIVTPRP | 0.0598
99 | RRIRGRPPRLPRPRPRPEKQPRP | 0.034
100 | RRIRCRPPRLPRPRPRPTAEPRP | 0.363

Row | Sequence | shrunken log2 fold change
101 | RRIRKRPPRLPRPRPRPCTNPRP | -0.0404
102 | RRIRARPPRLPRPRPRPWDFPRP | -0.00352
103 | RRIRFRPPRLPRPRPRPNAKPRP | -0.00228
104 | RRIRERPPRLPRPRPRPAPKPRP | 0.678
105 | RRIRARPPRLPRPRPRPHWFPRP | 0.0804
106 | RRIRVRPPRLPRPRPRPLQVPRP | -0.0194
107 | RRIRMRPPRLPRPRPRPEPSPRP | 2.72
108 | RRIRLRPPRLPRPRPRPDWKPRP | 0.0269
109 | RRIRCRPPRLPRPRPRPQWTPRP | -0.205
110 | RRIRGRPPRLPRPRPRPFACPRP | 0.39
111 | RRIRKRPPRLPRPRPRPIAWPRP | 0.155
112 | RRIRIRPPRLPRPRPRPFYKPRP | -0.0824
113 | RRIRFRPPRLPRPRPRPYHLPRP | -0.643
114 | RRIRSRPPRLPRPRPRPECCPRP | 0.21
115 | RRIRKRPPRLPRPRPRPRQMPRP | 0.0035
116 | RRIRWRPPRLPRPRPRPQWTPRP | 0.787
117 | RRIRVRPPRLPRPRPRPYGLPRP | -0.00518
118 | RRIRPRPPRLPRPRPRPLLHPRP | 0.0277
119 | RRIRIRPPRLPRPRPRPNTFPRP | -0.926
120 | RRIRERPPRLPRPRPRPWLYPRP | 0.102
121 | RRIRNRPPRLPRPRPRPDFWPRP | 0.3
122 | RRIRCRPPRLPRPRPRPWQKPRP | -0.0588
123 | RRIRHRPPRLPRPRPRPPIAPRP | -0.0868
124 | RRIRSRPPRLPRPRPRPYDVPRP | 0.0192
125 | RRIRDRPPRLPRPRPRPAGRPRP | 0.632

Row | Sequence | shrunken log2 fold change
126 | RRIRFRPPRLPRPRPRPIMAPRP | -0.0564
127 | RRIRYRPPRLPRPRPRPRKLPRP | -0.14
128 | RRIRRRPPRLPRPRPRPCIPPRP | -0.867
129 | RRIRERPPRLPRPRPRPVYTPRP | -0.146
130 | RRIRSRPPRLPRPRPRPHNVPRP | -0.436
131 | RRIRYRPPRLPRPRPRPHMMPRP | -1.6
132 | RRIRARPPRLPRPRPRPEDEPRP | 0.182
133 | RRIRGRPPRLPRPRPRPHQDPRP | 0.165
134 | RRIRIRPPRLPRPRPRPSYIPRP | -1.04
135 | RRIRERPPRLPRPRPRPADFPRP | 0.0432
136 | RRIRDRPPRLPRPRPRPYPDPRP | -0.27
137 | RRIRIRPPRLPRPRPRPHRRPRP | -0.056
138 | RRIRWRPPRLPRPRPRPFIRPRP | 0.0247
139 | RRIRNRPPRLPRPRPRPCFRPRP | -0.241
140 | RRIRVRPPRLPRPRPRPDEQPRP | 0.353
141 | RRIRTRPPRLPRPRPRPMIVPRP | -0.158
142 | RRIRVRPPRLPRPRPRPTVFPRP | -0.0187
143 | RRIRGRPPRLPRPRPRPSWDPRP | 0.496
144 | RRIRNRPPRLPRPRPRPYLIPRP | -0.0464
145 | RRIRNRPPRLPRPRPRPFYRPRP | -0.131
146 | RRIRDRPPRLPRPRPRPGRIPRP | -0.136
147 | RRIRLRPPRLPRPRPRPGVCPRP | 0.195
148 | RRIRQRPPRLPRPRPRPSWHPRP | -0.155
149 | RRIRMRPPRLPRPRPRPPLPPRP | 0.879
150 | RRIRMRPPRLPRPRPRPRWVPRP | 0.4
